Measurements taken from patent US20250002588A1 (DIAGONAL THERAPEUTICS, published 2025).
Where a chain is given by its changes, count along the chain named.

Target: ALK-1/BMPR-2 receptor pair of the PathHunter U2Os dimerization cells (DiscoverX 93-0962C3) (UniProt P37023 22-503; Q13873 27-1038)
Assay: cell-based or functional assay

Chain of ALK-1/BMPR-2 receptor pair of the PathHunter U2Os dimerization cells (DiscoverX 93-0962C3) (P37023 22-503, chain 1 of 2): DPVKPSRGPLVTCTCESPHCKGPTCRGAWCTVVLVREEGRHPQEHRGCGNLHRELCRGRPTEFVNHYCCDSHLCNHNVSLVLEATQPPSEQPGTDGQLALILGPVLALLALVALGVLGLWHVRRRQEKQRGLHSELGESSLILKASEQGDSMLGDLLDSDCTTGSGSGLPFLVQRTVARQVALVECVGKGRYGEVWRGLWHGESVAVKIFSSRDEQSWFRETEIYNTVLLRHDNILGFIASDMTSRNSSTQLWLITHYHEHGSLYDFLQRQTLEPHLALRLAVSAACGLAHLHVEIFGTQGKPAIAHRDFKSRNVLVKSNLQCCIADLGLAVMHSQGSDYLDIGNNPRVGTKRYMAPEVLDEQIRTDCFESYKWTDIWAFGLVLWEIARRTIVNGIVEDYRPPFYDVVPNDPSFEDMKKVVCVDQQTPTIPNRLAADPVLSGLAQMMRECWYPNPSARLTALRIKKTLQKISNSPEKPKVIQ
Chain of ALK-1/BMPR-2 receptor pair of the PathHunter U2Os dimerization cells (DiscoverX 93-0962C3) (Q13873 27-1038, chain 2 of 2): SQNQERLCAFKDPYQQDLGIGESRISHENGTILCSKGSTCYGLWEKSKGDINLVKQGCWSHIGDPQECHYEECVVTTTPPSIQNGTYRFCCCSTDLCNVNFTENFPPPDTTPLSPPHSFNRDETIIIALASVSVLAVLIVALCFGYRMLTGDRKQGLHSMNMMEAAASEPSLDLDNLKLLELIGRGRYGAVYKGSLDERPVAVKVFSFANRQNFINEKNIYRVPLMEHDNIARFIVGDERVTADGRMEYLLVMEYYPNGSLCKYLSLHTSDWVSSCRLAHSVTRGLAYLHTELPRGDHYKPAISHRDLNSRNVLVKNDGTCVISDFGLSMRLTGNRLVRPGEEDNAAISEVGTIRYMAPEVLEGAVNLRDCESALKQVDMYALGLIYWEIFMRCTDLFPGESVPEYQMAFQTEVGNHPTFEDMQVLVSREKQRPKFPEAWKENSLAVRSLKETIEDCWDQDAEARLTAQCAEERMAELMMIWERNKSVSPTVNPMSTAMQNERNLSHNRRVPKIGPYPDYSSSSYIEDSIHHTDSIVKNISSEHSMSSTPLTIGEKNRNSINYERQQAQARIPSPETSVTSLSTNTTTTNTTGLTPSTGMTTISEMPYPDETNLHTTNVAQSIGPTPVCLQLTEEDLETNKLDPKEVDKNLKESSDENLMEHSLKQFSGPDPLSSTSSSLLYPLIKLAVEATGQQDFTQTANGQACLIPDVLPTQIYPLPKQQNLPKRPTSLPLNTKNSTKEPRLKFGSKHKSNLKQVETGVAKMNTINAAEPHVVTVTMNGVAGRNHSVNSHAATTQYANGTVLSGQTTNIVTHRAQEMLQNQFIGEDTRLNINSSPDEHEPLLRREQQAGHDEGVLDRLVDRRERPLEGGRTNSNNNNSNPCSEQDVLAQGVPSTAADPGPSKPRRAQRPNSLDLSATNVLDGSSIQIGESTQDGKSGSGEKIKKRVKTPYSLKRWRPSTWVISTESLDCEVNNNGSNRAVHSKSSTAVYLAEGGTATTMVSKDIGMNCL

B1: DGL282 (bispecific antibody, human IgG1, lambda)
heavy 1: EVQLLESGGGLVQPGGSLRLSCAASGFTFSIYAMSWVRQAPGKGLEWVSAISGSGGSTYYADSVKGRFTISRDNSKNTLYLQMNSLRAEDTAVYYCARDFDYWGQGTLVTVTSSASVAAPSVFIFPPSDEQLKSGTASVVCLLNNFYPREAKVQWKVDNALQSGNSQESVTEQDSKDSTYSLSSTLTLSKADYEKHKVYACEVTHQGLSSPVTKSFNRGECDKTHTCPPCPAPEAAGAPSVFLFPPKPKDTLMISRTPEVTCVVVDVSHEDPEVKFNWYVDGVEVHNAKTKPREEQYNSTYRVVSVLTVLHQDWLNGKEYKCKVSNKALPAPIEKTISKAKGQPREPQVCTLPPSRDELTKNQVSLSCAVKGFYPSDIAVEWESNGQPENNYKTTPPVLDSDGSFFLVSKLTVDKSRWQQGNVFSCSVMHEALHNHYTQKSLSLSPGWSHPQFEK
light 1: QSVLTQPPSASGTPGQRVTISCSGSSSNIGSNYVYWYQQLPGTAPKLLIYGNINRPSGVPDRFSGSKSGTSASLAISGLRSEDEADYYCAAWDDSLNGRVFGGGTKLTVLSSASTKGPSVFPLAPSSKSTSGGTAALGCLVKDYFPEPVTVSWNSGALTSGVHTFPAVLQSSGLYSLSSVVTVPSSSLGTQTYICNVNHKPSNTKVDKKVEPKSC
heavy 2: not shown
light 2: not shown
% Emax BMP9: 36%
EC50: 170 nM
Emax (RLU): 954000 RLU

B2: DGL283 (bispecific antibody, human IgG1, lambda)
heavy 1: EVQLLESGGGLVQPGGSLRLSCAASGFTFSSYAMSWVRQAPGKGLEWVANINQDGSEKNYVDSMRGRFTISRDNSKNTLYLQMNSLRAEDTAVYYCAREFDYWGQGTLVTVTSSASVAAPSVFIFPPSDEQLKSGTASVVCLLNNFYPREAKVQWKVDNALQSGNSQESVTEQDSKDSTYSLSSTLTLSKADYEKHKVYACEVTHQGLSSPVTKSFNRGECDKTHTCPPCPAPEAAGAPSVFLFPPKPKDTLMISRTPEVTCVVVDVSHEDPEVKFNWYVDGVEVHNAKTKPREEQYNSTYRVVSVLTVLHQDWLNGKEYKCKVSNKALPAPIEKTISKAKGQPREPQVCTLPPSRDELTKNQVSLSCAVKGFYPSDIAVEWESNGQPENNYKTTPPVLDSDGSFFLVSKLTVDKSRWQQGNVFSCSVMHEALHNHYTQKSLSLSPGWSHPQFEK
light 1: B1 light 1 with T5A, I53N, N54K
heavy 2: not shown
light 2: not shown
% Emax BMP9: 33%
EC50: 28 nM
Emax (RLU): 879000 RLU

B3: DGL281 (bispecific antibody, human IgG1, lambda)
heavy: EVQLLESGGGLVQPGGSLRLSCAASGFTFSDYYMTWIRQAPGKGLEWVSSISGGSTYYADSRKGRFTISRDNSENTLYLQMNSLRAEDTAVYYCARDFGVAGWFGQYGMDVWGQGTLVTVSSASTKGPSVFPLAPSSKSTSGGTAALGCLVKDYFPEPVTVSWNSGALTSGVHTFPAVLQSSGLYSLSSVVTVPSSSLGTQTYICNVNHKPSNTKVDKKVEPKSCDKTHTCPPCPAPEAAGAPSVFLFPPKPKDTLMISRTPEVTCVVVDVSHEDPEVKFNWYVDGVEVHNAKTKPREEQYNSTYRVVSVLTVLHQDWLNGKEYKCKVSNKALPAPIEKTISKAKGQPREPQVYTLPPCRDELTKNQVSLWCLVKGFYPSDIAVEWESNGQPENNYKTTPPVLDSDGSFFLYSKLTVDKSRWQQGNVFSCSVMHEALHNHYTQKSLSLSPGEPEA
light: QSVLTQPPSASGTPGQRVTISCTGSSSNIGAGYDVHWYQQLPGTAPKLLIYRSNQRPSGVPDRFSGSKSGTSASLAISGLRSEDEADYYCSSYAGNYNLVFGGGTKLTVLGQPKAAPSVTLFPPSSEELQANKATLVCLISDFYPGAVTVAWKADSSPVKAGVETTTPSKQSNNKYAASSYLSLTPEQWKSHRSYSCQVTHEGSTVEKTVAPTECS
chain: EVQLLESGGGLVQPGGSLRLSCAASGFTFSDYYMTWIRQAPGKGLEWVSSISGGSTYYADSRKGRFTISRDNSENTLYLQMNSLRAEDTAVYYCARDFGVAGWFGQYGMDVWGQGTLVTVSSGGGGSGGGGSGGGGSQSVLTQPPSASGTPGQRVTISCTGSSSNIGAGYDVHWYQQLPGTAPKLLIYRSNQRPSGVPDRFSGSKSGTSASLAISGLRSEDEADYYCSSYAGNYNLVFGGGTKLTVLDKTHTCPPCPAPEAAGAPSVFLFPPKPKDTLMISRTPEVTCVVVDVSHEDPEVKFNWYVDGVEVHNAKTKPREEQYNSTYRVVSVLTVLHQDWLNGKEYKCKVSNKALPAPIEKTISKAKGQPREPQVCTLPPSRDELTKNQVSLSCAVKGFYPSDIAVEWESNGQPENNYKTTPPVLDSDGSFFLVSKLTVDKSRWQQGNVFSCSVMHEALHNHYTQKSLSLSPGKWSHPQFEK
% Emax BMP9: 42%
EC50: 330 nM
Emax (RLU): 1.11e+06 RLU

B4: DGL287 (bispecific antibody)
chain: EVQLLESGGGLVQPGGSLRLSCAASGFTFSSYAMSWVRQAPGKGLEWVANINQDGSEKNYVDSMRGRFTISRDNSKNTLYLQMNSLRAEDTAVYYCAREFDYWGQGTLVTVTSSGGGGSGGGGSGGGGSQSVLAQPPSASGTPGQRVTISCSGSSSNIGSNYVYWYQQLPGTAPKLLIYGNNKRPSGVPDRFSGSKSGTSASLAISGLRSEDEADYYCAAWDDSLNGRVFGGGTKLTVLDKGPSVFPLAPEPKSSEVQLLESGGGLVQPGGSLRLSCAASGFTFSDYYMTWIRQAPGKGLEWVSSISGGSTYYADSRKGRFTISRDNSENTLYLQMNSLRAEDTAVYYCARDFGVAGWFGQYGMDVWGQGTLVTVSSGGGGSGGGGSGGGGSQSVLTQPPSASGTPGQRVTISCTGSSSNIGAGYDVHWYQQLPGTAPKLLIYRSNQRPSGVPDRFSGSKSGTSASLAISGLRSEDEADYYCSSYAGNYNLVFGGGTKLTVLDKTHTCPPCPAPEAAGAPSVFLFPPKPKDTLMISRTPEVTCVVVDVSHEDPEVKFNWYVDGVEVHNAKTKPREEQYNSTYRVVSVLTVLHQDWLNGKEYKCKVSNKALPAPIEKTISKAKGQPREPQVYTLPPSRDELTKNQVSLTCLVKGFYPSDIAVEWESNGQPENNYKTTPPVLDSDGSFFLYSKLTVDKSRWQQGNVFSCSVMHEALHNHYTQKSLSLSPG
% Emax BMP9: 48%
EC50: 0.04 nM
Emax (RLU): 1.26e+06 RLU

B5: DGL285 (bispecific antibody)
chain: EVQLLESGGGLVQPGGSLRLSCAASGFTFSIYAMSWVRQAPGKGLEWVSAISGSGGSTYYADSVKGRFTISRDNSKNTLYLQMNSLRAEDTAVYYCARDFDYWGQGTLVTVTSSGGGGSGGGGSGGGGSQSVLTQPPSASGTPGQRVTISCSGSSSNIGSNYVYWYQQLPGTAPKLLIYGNINRPSGVPDRFSGSKSGTSASLAISGLRSEDEADYYCAAWDDSLNGRVFGGGTKLTVLDKGPSVFPLAPEPKSSEVQLLESGGGLVQPGGSLRLSCAASGFTFSNAWMNWVRQAPGKGLEWVSSISSSSSYIYYADSVKGRFTISRDNSKNTLYLQMNSLRAEDTAVYYCARAVAAGGMFWGLDQWGQGTLVTVTSSGGGGSGGGGSGGGGSQSVLTQPPSASGTPGQRVTISCSGSRSNIGSNSVHWYQQLPGTAPKLLIYGNSNRPSGVPDRFSGSKSGTSASLAISGLRSEDEADYYCQSYDSSLNDHVVFGGGTKLTVLDKTHTCPPCPAPEAAGAPSVFLFPPKPKDTLMISRTPEVTCVVVDVSHEDPEVKFNWYVDGVEVHNAKTKPREEQYNSTYRVVSVLTVLHQDWLNGKEYKCKVSNKALPAPIEKTISKAKGQPREPQVYTLPPSRDELTKNQVSLTCLVKGFYPSDIAVEWESNGQPENNYKTTPPVLDSDGSFFLYSKLTVDKSRWQQGNVFSCSVMHEALHNHYTQKSLSLSPG
% Emax BMP9: 56%
EC50: 0.08 nM
Emax (RLU): 1.47e+06 RLU

B6: DGL266 (bispecific antibody)
chain 1: EVQLLESGGGLVQPGGSLRLSCAASGFTFSIYAMSWVRQAPGKGLEWVSAISGSGGSTYYADSVKGRFTISRDNSKNTLYLQMNSLRAEDTAVYYCARDFDYWGQGTLVTVTSSGGGGSGGGGSGGGGSQSVLTQPPSASGTPGQRVTISCSGSSSNIGSNYVYWYQQLPGTAPKLLIYGNINRPSGVPDRFSGSKSGTSASLAISGLRSEDEADYYCAAWDDSLNGRVFGGGTKLTVLGGGGSGGGGSGGGGSGVECPPCPAPPVAGPSVFLFPPKPKDTLMISRTPEVTCVVVDVSHEDPEVQFNWYVDGVEVHNAKTKPREEQFNSTFRVVSVLTVVHQDWLNGKEYKCKVSNKGLPAPIEKTISKTKGQPREPQVYTLPPCREEMTKNQVSLWCLVKGFYPSDIAVEWESNGQPENNYKTTPPMLDSDGSFFLYSKLTVDKSRWQQGNVFSCSVMHEALHNHYTQKSLSLSPG
chain 2: EVQLLESGGGLVQPGGSLRLSCAASGFTFSNAWMNWVRQAPGKGLEWVSSISSSSSYIYYADSVKGRFTISRDNSKNTLYLQMNSLRAEDTAVYYCARAVAAGGMFWGLDQWGQGTLVTVTSSGGGGSGGGGSGGGGSQSVLTQPPSASGTPGQRVTISCSGSRSNIGSNSVHWYQQLPGTAPKLLIYGNSNRPSGVPDRFSGSKSGTSASLAISGLRSEDEADYYCQSYDSSLNDHVVFGGGTKLTVLGGGGSGGGGSGGGGSGVECPPCPAPPVAGPSVFLFPPKPKDTLMISRTPEVTCVVVDVSHEDPEVQFNWYVDGVEVHNAKTKPREEQFNSTFRVVSVLTVVHQDWLNGKEYKCKVSNKGLPAPIEKTISKTKGQPREPQVCTLPPSREEMTKNQVSLSCAVKGFYPSDIAVEWESNGQPENNYKTTPPMLDSDGSFFLVSKLTVDKSRWQQGNVFSCSVMHEALHNHYTQKSLSLSPG
% Emax BMP9: 39%
EC50: 2 nM
Emax (RLU): 1.04e+06 RLU

B7: DGL288 (bispecific antibody)
chain: EVQLLESGGGLVQPGGSLRLSCAASGFTFSDYYMTWIRQAPGKGLEWVSSISGGSTYYADSRKGRFTISRDNSENTLYLQMNSLRAEDTAVYYCARDFGVAGWFGQYGMDVWGQGTLVTVSSGGGGSGGGGSGGGGSQSVLTQPPSASGTPGQRVTISCTGSSSNIGAGYDVHWYQQLPGTAPKLLIYRSNQRPSGVPDRFSGSKSGTSASLAISGLRSEDEADYYCSSYAGNYNLVFGGGTKLTVLDKGPSVFPLAPEPKSSEVQLLESGGGLVQPGGSLRLSCAASGFTFSSYAMSWVRQAPGKGLEWVANINQDGSEKNYVDSMRGRFTISRDNSKNTLYLQMNSLRAEDTAVYYCAREFDYWGQGTLVTVTSSGGGGSGGGGSGGGGSQSVLAQPPSASGTPGQRVTISCSGSSSNIGSNYVYWYQQLPGTAPKLLIYGNNKRPSGVPDRFSGSKSGTSASLAISGLRSEDEADYYCAAWDDSLNGRVFGGGTKLTVLDKTHTCPPCPAPEAAGAPSVFLFPPKPKDTLMISRTPEVTCVVVDVSHEDPEVKFNWYVDGVEVHNAKTKPREEQYNSTYRVVSVLTVLHQDWLNGKEYKCKVSNKALPAPIEKTISKAKGQPREPQVYTLPPSRDELTKNQVSLTCLVKGFYPSDIAVEWESNGQPENNYKTTPPVLDSDGSFFLYSKLTVDKSRWQQGNVFSCSVMHEALHNHYTQKSLSLSPG
% Emax BMP9: 76%
EC50: 0.07 nM
Emax (RLU): 2e+06 RLU

B8: DGL286 (bispecific antibody)
chain: EVQLLESGGGLVQPGGSLRLSCAASGFTFSNAWMNWVRQAPGKGLEWVSSISSSSSYIYYADSVKGRFTISRDNSKNTLYLQMNSLRAEDTAVYYCARAVAAGGMFWGLDQWGQGTLVTVTSSGGGGSGGGGSGGGGSQSVLTQPPSASGTPGQRVTISCSGSRSNIGSNSVHWYQQLPGTAPKLLIYGNSNRPSGVPDRFSGSKSGTSASLAISGLRSEDEADYYCQSYDSSLNDHVVFGGGTKLTVLDKGPSVFPLAPEPKSSEVQLLESGGGLVQPGGSLRLSCAASGFTFSIYAMSWVRQAPGKGLEWVSAISGSGGSTYYADSVKGRFTISRDNSKNTLYLQMNSLRAEDTAVYYCARDFDYWGQGTLVTVTSSGGGGSGGGGSGGGGSQSVLTQPPSASGTPGQRVTISCSGSSSNIGSNYVYWYQQLPGTAPKLLIYGNINRPSGVPDRFSGSKSGTSASLAISGLRSEDEADYYCAAWDDSLNGRVFGGGTKLTVLDKTHTCPPCPAPEAAGAPSVFLFPPKPKDTLMISRTPEVTCVVVDVSHEDPEVKFNWYVDGVEVHNAKTKPREEQYNSTYRVVSVLTVLHQDWLNGKEYKCKVSNKALPAPIEKTISKAKGQPREPQVYTLPPSRDELTKNQVSLTCLVKGFYPSDIAVEWESNGQPENNYKTTPPVLDSDGSFFLYSKLTVDKSRWQQGNVFSCSVMHEALHNHYTQKSLSLSPG
% Emax BMP9: 68%
EC50: 0.2 nM
Emax (RLU): 1.8e+06 RLU
